The data set concerns the target MBP-FUS-His6 WT (UniProt P35637 1-526). The experiment in a line: EMSA; 5 mM MgCl2, 0.1 mg/ml yeast tRNA; 5 nM RNA, 0-10 uM protein; 20 mM NaPO4 pH 8, 150 mM NaCl, 5% glycerol, 1 mM DTT, 5 mM MgCl2, 0.5 mg/ml BSA, 0.1 mg/ml yeast tRNA, 1 U/ul RNase inhibitor, 20 min RT; 6% native PAGE in 0.5x TBE. The following applies: protein: recombinant; tags: N-terminal MBP, C-terminal His6; hairpin with 3' single-stranded tail. In general terms: Mobility shift assays separate free from complexed probe on a gel.

Sequence of MBP-FUS-His6 WT (P35637 whole entry): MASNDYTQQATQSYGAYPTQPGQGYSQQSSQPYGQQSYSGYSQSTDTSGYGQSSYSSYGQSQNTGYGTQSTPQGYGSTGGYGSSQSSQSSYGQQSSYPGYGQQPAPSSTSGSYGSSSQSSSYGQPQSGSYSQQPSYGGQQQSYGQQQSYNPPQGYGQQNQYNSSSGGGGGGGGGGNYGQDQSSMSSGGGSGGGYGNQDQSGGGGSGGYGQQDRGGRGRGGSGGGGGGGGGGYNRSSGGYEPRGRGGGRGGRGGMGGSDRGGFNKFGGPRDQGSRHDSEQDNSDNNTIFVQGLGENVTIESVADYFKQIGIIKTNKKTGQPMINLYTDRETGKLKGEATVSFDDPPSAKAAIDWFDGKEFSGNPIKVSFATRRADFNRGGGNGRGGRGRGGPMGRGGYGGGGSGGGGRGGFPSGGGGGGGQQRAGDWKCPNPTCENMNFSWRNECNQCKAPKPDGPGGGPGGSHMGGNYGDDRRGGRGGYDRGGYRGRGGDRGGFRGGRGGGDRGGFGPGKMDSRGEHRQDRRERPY

For the molecule GGAUCUUUAACUACUCAAGAUACUGAACAUGACAUGGUA (structured_RNA) [SON pre-mRNA stem loop with downstream GGU motif], the binding result is “binds”.

The values are drawn from publication PMC9258132, “Multi-omics profiling identifies a deregulated FUS-MAP1B axis in ALS/FTD–associated UBQLN2 mutants”.
